Data on 7 molecules can be found in US20230346938A1 (Memorial Sloan Kettering, published 2023).

The target of assay [1] is T1, soluble CD19-HSA fusion protein (CD19 extracellular domains fused to human serum albumin) (human, UniProt P15391 20-291).
T1 construct: extracellular domain; also called recombinant CD19 antigen; not shown: human serum albumin
T1 sequence (looked up): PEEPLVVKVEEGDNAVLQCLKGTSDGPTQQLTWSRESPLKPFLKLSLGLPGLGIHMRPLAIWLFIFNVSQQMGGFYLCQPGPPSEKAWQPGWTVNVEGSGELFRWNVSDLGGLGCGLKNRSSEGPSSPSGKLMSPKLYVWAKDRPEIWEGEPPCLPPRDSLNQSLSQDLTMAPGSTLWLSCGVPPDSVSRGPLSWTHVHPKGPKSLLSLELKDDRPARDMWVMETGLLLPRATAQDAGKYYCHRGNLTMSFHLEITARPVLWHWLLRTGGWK
As to the kind of experiment: BLI (ForteBio Octet RED384), IgG on AHC sensors, 100 nM soluble CD19-HSA, 1:1 model.

In assay [2] the target is T2, CD19 endogenously expressed on Raji and NALM-6 cells (human, UniProt P15391 20-556).
T2 construct: whole, on cells; also called CD19 on NALM-6 cells; CD19 on Raji cells
T2 sequence (looked up): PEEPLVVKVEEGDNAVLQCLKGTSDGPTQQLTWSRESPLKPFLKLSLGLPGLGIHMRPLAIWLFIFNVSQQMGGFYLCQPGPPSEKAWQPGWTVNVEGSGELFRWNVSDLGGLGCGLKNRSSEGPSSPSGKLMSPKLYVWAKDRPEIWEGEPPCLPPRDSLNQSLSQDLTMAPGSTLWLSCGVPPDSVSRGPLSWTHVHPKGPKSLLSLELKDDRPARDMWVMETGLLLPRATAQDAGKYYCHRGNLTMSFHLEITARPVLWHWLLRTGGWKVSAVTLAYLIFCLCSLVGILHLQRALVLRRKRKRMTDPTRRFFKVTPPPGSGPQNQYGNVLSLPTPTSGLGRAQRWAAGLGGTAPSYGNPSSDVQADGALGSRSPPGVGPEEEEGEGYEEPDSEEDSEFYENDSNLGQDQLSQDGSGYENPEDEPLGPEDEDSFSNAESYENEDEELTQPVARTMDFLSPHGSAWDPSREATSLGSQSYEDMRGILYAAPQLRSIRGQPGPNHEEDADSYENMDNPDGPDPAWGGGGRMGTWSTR
The experiment in a line: flow cytometry, serial dilution on NALM-6 cells. (Flow cytometry measures light scatter and fluorescence of single cells or particles in a stream.)

What is called Kd is the concentration at which binding is half-saturated. A word on the koff: it is the rate constant with which the complex falls apart. The low end stands for slow dissociation, the high end for fast dissociation. A word on the kon: it is the rate constant with which the complex forms. The EC50 is the concentration that produces a half-maximal response.

B1: Antibody 6 (antibody, V domains shown)
VH: QVQLVESGGGVVQPGRSLRLSCAASGFTFSSYGMHWVRQAPGKGLEWVALIWYDGSNKYYADSVKGRFTISRDNSKNTLYLQMNSLRAEDTAVYYCAKPVEGLLRGFDYWGQGTLVTVSS
VL: EIVLTQSPGTLSLSPGERATLSCRASQSVRSSYLAWYQQKPGQAPRLLIYGASSRATGIPDRFSGSGSGTDFTLTISRLEPEDFAVYYCQQAGVPPLTFGGGTKVEIK
notes: Human IgG produced in Adimab yeast, purified on Protein A; Has the VH and VL of #6 scFv; also called CD19 Antibody 6
In assay [1], B1 displayed an equilibrium dissociation constant (Kd) of 6.4 nM, a koff of 0.000484 s⁻¹ and an on-rate (kon) of 75600 M⁻¹ s⁻¹. In assay [2], a half-maximal response (EC50) required 0.18 nM.

B2: Antibody 5 (antibody, V domains shown)
VH: QVQLVESGGGVVQPGRSLRLSCAASGFTFSSYGMHWVRQAPGKGLEWVALIWYDGSNKYYADSVKGRFTISRDNSKNTLYLQMNSLRAEDTAVYYCAKPVEGLLRGFDYWGQGTLVTVSS
VL: EIVLTQSPGTLSLSPGERATLSCRASQSVSSSYLAWYQQKPGQAPRLLIYGASSRATGIPDRFSGSGSGTDFTLTISRLEPEDFAVYYCQQAGGVPPLTFGGGTKVEIK
notes: Human IgG produced in Adimab yeast, purified on Protein A; Has the VH and VL of #5 scFv; also called CD19 Antibody 5
On to B2, for which, in assay [1], the Kd is 10.4 nM, the koff was found to be 0.000785 s⁻¹ and the kon amounted to 75600 M⁻¹ s⁻¹. Moreover, it took 0.219 nM to reach a half-maximal effect in assay [2] (EC50).

B3: Antibody 7 (antibody, V domains shown)
VH: QVQLVESGGGVVQPGRSLRLSCAASGFTFSSYGMHWVRQAPGKGLEWVALIWYDGSNKYYADSVKGRFTISRDNSKNTLYLQMNSLRAEDTAVYYCAKPVEGLLRGFDYWGQGTLVTVSS
VL: EIVMTQSPGTLSLSPGERATLSCRASQSVSSSYLAWYQQKPGQAPRLLIYGASSRATGIPDRFSGSGSGTDFTLTISRLEPEDFAVYYCQQAGGVPPFTFGGGTKVEIK
notes: Human IgG produced in Adimab yeast, purified on Protein A; Has the VH and VL of #7 scFv; also called CD19 Antibody 7
As to B3, in assay [1], the affinity, expressed as Kd, was 14.9 nM; the koff came out at 0.00105 s⁻¹; the kon stood at 70000 M⁻¹ s⁻¹. Moreover, a half-maximal response in assay [2] (EC50) required 0.21 nM.

B4: Antibody 1 (antibody, V domains shown)
VH: QVQLVESGGGVVQPGRSLRLSCAASGFTFSSYGMHWVRQAPGKGLEWVALIWYDGSNKYYADSVKGRFTISRDNSKNTLYLQMNSLRAEDTAVYYCAKPVEGLLRGFDYWGQGTLVTVSS
VL: EIVMTQSPGTLSLSPGERATLSCRASQSVSSSYLAWYQQKPGQAPRLLIYGASNRATGIPDRFSGSGSGTDFTLTISRLEPEDFAVYYCQQAGVFPFTFGGGTKVEIK
notes: Human IgG produced in Adimab yeast, purified on Protein A; Has the VH and VL of #1 scFv; also called CD19 Antibody 1
On to B4, for which, in assay [1], binding was put at a Kd of 32.9 nM, the koff was determined as 0.00176 s⁻¹ and the kon stood at 53400 M⁻¹ s⁻¹. The EC50 in assay [2] worked out at 0.588 nM.

B5: Antibody 2 (antibody, V domains shown)
VH: QVQLVESGGGVVQPGRSLRLSCAASGFTFSSYGMHWVRQAPGKGLEWVALIWYDGSNKYYADSVKGRFTISRDNSKNTLYLQMNSLRAEDTAVYYCAKPVEGLLRGFDYWGQGTLVTVSS
VL: EIVLTQSPGTLSLSPGERATLSCRASQSVSSSYLAWYQQKPGQAPRLLIYGASSRATGIPDRFSGSGSGTDFTLTISRLEPEDFAVYYCQQAGAVPITFGGGTKVEIK
notes: Human IgG produced in Adimab yeast, purified on Protein A; also called CD19 Antibody 2
In assay [1], B5 yielded a dissociation constant (Kd) of 9.01 nM, a koff of 0.000554 s⁻¹ and an on-rate constant (kon) of 61500 M⁻¹ s⁻¹. In assay [2], this molecule came in with an EC50 of 0.314 nM.

B6: Antibody 4 (antibody, V domains shown)
VH: QVQLVESGGGVVQPGRSLRLSCAASGFTFSSYGMHWVRQAPGKGLEWVALIWYDGSNKYYADSVKGRFTISRDNSKNTLYLQMNSLRAEDTAVYYCAKPVEGLLRGFDYWGQGTLVTVSS
VL: EIVLTQSPGTLSLSPGERATLSCRASQSVSSSYLAWYQQKPGQAPRLLIYGASSRATGIPDRFSGSGSGTDFTLTISRLEPEDFAVYYCQQVDSLHPFTFGGGTKVEIK
notes: Human IgG produced in Adimab yeast, purified on Protein A; Has the VH and VL of #4 scFv; also called CD19 Antibody 4
In assay [1], B6 showed a Kd of 9.27 nM, a koff of 0.000218 s⁻¹ and a kon of 23500 M⁻¹ s⁻¹. In assay [2], this molecule had an EC50 of 0.519 nM.

B7: Antibody 15 (antibody, V domains shown)
VH: QVQLVESGGGVVQPGRSLRLSCAASGFTFSSYGMHWVRQAPGKGLEWVALIWYDGSNKYYADSVKGRFTISRDNSKNTLYLQMNSLRAEDTAVYYCAKPVEGLLRGFDYWGQGTLVTVSS
VL: EIVLTQSPGTLSLSPGERATLSCRASQSVSSSYLAWYQQKPGQAPRLLIYGASRRATGIPDRFSGSGSGTDFTLTISRLEPEDFAVYYCQQAGIPPYTFGGGTKVEIK
notes: Human IgG produced in Adimab yeast, purified on Protein A; Has the VH and VL of #15 scFv; also called CD19 Antibody 15
Turning to B7, in assay [1], the Kd is 20.8 nM, the koff is 0.00145 s⁻¹ and the kon amounted to 69800 M⁻¹ s⁻¹. Also, the midpoint of the response in assay [2], the EC50, lay at 0.27 nM.
